# B1: AOX PPRE (dsDNA)
# DNA 1: CTAGCGATATCATGACCTTTGTCCTAGGCCTC
# DNA 2: CTAGGAGGCCTAGGACAAAGGTCATGATATCG
# B2: hydratase (bifunctional enzyme) PPRE (dsDNA)
# DNA 1: GATCCCTTTGACCTATTGAACTATTACCTACATTA
# DNA 2: TAATGTAGGTAATAGTTCAATAGGTCAAAGGGATC
# B3: ApoA1 A site (dsDNA)
# DNA 1: GATCCCCACTGAACCCTTGACCCCTGCCCTGCAGCA
# DNA 2: TGCTGCAGGGCAGGGGTCAAGGGTTCAGTGGGGATC
# Key:
# hPPARgamma = hPPARgamma (Homo sapiens, UniProt P37231 SEQ:20-494); experiment: EMSA; hPPARgamma alone, no complex; details: tags: T3 coupled reticulocyte lysate (Promega), label: 32P end
# [1] = target: hPPARgamma/hRXRalpha heterodimer (Homo sapiens, UniProt P37231;P19793 P37231:31-505,P19793:1-462); experiment: EMSA; strong retarded complex; details: tags: hPPARgamma in vitro translated, hRXRalpha baculovirus/Sf21 expressed, label: 32P end
# Chain of hPPARgamma/hRXRalpha heterodimer (P37231 31-505, chain 1 of 2): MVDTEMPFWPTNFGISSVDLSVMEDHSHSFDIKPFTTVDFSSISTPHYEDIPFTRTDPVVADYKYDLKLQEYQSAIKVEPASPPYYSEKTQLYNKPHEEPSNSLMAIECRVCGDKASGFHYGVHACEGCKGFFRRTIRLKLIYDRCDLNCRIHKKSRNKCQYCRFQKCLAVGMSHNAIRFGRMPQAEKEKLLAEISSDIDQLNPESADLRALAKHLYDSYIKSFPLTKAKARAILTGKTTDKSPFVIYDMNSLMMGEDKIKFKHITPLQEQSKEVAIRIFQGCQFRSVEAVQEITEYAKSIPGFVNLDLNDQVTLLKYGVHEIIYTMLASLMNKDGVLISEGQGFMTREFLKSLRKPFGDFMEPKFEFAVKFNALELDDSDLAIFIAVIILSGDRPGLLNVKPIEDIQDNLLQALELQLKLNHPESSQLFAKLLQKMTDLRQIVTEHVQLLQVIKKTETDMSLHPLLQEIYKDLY
# Chain of hPPARgamma/hRXRalpha heterodimer (P19793 whole entry, chain 2 of 2): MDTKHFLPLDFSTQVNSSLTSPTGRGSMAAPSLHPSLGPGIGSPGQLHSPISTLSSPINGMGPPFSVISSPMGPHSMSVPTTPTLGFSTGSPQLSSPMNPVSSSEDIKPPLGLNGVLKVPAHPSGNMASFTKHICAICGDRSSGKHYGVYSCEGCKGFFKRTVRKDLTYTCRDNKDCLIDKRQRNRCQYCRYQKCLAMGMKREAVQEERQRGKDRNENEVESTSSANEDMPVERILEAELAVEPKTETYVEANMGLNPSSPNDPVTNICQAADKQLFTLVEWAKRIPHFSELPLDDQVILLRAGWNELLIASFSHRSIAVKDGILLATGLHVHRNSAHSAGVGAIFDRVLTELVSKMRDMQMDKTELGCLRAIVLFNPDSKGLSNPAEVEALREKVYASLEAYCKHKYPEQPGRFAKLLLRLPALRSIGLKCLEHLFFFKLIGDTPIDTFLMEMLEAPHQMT
# Chain of hPPARgamma (P37231 31-505): as the sequence (P37231 31-505, chain 1 of 2) above
Binder,binding result (hPPARgamma; 5' CTAG overhangs),binding result ([1]; 5' CTAG overhangs),binding result (hPPARgamma),binding result [1]
B1,no binding,binds,–,–
B2,–,–,no binding,binds
B3,–,–,no binding,binds

# From patent US20040209839, “Human peroxisome proliferator activated receptor gamma” (published 2004)
